doi:10.1101/2020.02.25.965475

Legend:
Test in all cases: EMSA
FLAG-TEN = target: T1, FLAG-TEN (Cucumis sativus (cucumber), UniProt A0A0A0KSL1 1-395)
T1 sequence: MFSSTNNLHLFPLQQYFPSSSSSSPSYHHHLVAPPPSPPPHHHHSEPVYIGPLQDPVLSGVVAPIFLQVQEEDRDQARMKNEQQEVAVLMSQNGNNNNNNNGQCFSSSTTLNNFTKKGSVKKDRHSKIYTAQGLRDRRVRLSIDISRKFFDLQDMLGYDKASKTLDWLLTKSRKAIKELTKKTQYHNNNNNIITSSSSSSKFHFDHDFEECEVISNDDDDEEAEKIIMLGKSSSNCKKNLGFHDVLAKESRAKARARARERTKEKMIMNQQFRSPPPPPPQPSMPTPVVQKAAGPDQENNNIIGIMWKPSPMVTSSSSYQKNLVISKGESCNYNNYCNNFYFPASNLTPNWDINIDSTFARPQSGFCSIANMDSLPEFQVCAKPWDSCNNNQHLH

MBP-C = target: T2, MBP-C (Cucumis sativus (cucumber), UniProt A0A0A0KSL1 265-395)
T2 sequence: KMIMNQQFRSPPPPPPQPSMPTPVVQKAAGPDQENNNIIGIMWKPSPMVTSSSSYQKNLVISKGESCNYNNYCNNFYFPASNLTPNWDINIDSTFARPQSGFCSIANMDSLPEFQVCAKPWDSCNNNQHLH

FLAG-ΔN121 (TCP+R+C130) = target: T3, FLAG-ΔN121 (TCP+R+C130) (Cucumis sativus (cucumber), UniProt A0A0A0KSL1 122-395, del1-121)
T3 sequence: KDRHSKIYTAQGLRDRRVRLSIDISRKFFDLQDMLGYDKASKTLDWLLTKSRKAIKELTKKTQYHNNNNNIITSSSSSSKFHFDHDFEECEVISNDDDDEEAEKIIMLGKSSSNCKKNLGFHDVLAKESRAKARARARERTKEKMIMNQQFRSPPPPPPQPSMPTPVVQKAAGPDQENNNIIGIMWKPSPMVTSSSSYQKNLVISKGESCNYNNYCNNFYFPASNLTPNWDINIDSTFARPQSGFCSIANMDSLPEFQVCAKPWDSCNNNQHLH

FLAG-TEN N338Y = target: T4, FLAG-TEN N338Y (Cucumis sativus (cucumber), UniProt A0A0A0KSL1 1-395, N338Y)
T4 sequence: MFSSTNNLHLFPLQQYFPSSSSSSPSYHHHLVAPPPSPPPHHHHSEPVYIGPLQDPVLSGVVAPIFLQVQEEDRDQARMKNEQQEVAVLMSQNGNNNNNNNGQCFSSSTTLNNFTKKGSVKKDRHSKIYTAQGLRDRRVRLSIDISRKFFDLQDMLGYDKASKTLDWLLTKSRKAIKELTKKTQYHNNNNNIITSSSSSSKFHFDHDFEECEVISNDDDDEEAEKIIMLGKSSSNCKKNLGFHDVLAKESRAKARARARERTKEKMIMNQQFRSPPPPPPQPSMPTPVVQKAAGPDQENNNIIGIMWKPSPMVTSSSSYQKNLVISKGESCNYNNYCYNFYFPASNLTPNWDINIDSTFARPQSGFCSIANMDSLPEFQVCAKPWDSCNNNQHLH

Binder	binding result (FLAG-TEN)	binding result (MBP-C)	binding result (FLAG-ΔN121 (TCP+R+C130))	binding result (FLAG-TEN N338Y)
CTCCGCC probe (dsDNA) DNA 1: AAATTAAGAATATTTAACTCCGCCAATTCAAATATAAAGTATTAATT DNA 2: AATTAATACTTTATATTTGAATTGGCGGAGTTAAATATTCTTAATTT	binds	no binding	binds	no binding
GGTCCC probe (GTGGTCCCAC) (dsDNA) DNA 1: AAATTAAGAATATTGTGGTCCCACTCAAATATAAAGTATTAATT DNA 2: AATTAATACTTTATATTTGAGTGGGACCACAATATTCTTAATTT	–	–	–	binds
